These results are taken from PMC2992793 (Structure (London, England : 1993), 2010).

The target in experiment [1] is T1, Dvl2 Lys446Ala (construct not stated) (murine, UniProt Q60838 1-736, Lys446Ala).
T1 sequence (looked up): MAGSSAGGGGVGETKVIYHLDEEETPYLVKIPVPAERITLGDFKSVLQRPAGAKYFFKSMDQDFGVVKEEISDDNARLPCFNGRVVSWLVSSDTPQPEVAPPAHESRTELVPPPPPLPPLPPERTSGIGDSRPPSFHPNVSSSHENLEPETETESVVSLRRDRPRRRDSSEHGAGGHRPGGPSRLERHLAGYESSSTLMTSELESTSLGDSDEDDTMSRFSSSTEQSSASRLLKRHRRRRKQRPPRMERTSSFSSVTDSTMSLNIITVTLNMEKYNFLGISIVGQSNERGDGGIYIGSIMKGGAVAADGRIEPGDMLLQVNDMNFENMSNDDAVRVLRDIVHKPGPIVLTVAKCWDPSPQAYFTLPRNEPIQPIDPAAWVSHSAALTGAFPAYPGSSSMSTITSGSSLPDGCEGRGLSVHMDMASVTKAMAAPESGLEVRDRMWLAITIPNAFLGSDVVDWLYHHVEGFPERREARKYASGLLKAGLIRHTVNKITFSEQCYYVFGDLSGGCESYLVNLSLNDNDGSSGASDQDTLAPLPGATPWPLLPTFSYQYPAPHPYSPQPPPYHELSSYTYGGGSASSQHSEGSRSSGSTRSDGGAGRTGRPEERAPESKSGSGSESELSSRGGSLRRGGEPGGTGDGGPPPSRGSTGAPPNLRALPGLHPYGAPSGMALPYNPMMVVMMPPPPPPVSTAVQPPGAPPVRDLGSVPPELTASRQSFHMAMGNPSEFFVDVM

Experiment [2] concerns the target T2, Dvl2 Lys446Met (construct not stated) (murine, UniProt Q60838 1-736, Lys446Met).
T2 sequence (looked up): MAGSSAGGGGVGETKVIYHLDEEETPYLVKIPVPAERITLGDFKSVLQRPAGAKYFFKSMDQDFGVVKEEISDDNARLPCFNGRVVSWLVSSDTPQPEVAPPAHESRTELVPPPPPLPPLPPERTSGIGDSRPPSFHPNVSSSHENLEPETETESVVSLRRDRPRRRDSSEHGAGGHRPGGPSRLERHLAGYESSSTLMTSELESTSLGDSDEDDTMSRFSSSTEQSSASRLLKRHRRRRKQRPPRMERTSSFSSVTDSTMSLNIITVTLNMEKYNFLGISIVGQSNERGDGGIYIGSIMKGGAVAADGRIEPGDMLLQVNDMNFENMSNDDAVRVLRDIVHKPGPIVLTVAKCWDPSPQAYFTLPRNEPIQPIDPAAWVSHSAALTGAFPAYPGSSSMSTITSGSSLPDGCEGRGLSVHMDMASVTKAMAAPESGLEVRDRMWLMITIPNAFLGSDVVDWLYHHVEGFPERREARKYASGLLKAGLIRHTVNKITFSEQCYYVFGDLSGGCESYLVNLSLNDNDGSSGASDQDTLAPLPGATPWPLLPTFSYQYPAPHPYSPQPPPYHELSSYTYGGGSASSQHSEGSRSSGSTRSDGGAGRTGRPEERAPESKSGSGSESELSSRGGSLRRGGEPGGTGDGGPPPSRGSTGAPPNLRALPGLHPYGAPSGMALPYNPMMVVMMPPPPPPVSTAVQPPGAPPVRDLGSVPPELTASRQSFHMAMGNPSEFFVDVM

Experiment [3] has as its target T3, His-tagged μ2C (μ2 170–435), wild type (rat, UniProt P84092 170-435).
T3 sequence (looked up): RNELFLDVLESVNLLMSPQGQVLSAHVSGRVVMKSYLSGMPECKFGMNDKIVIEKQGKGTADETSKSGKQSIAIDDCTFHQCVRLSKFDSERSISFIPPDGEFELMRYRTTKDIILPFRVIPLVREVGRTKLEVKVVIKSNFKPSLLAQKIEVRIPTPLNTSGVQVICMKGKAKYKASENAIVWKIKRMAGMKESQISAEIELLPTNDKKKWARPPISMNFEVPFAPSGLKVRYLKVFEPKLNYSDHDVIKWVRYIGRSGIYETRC
The experiment in a line: pull-down.

Experiment [4] has as its target T4, GST-μ2C wild type (μ2 170–435) (rat, UniProt P84092 170-435).
T4 sequence (looked up): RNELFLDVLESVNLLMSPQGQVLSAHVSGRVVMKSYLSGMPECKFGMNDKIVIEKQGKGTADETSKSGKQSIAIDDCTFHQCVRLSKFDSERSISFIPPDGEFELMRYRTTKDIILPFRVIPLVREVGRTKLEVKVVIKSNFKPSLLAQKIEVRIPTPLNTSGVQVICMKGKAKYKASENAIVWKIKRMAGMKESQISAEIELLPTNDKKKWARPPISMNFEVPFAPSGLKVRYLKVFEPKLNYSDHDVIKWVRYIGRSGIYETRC
The experiment in a line: pull-down.

A further experiment has as its target T5, GST-μ2C F407A (rat, UniProt P84092 170-435, Phe407 to alanine).
T5 sequence (looked up): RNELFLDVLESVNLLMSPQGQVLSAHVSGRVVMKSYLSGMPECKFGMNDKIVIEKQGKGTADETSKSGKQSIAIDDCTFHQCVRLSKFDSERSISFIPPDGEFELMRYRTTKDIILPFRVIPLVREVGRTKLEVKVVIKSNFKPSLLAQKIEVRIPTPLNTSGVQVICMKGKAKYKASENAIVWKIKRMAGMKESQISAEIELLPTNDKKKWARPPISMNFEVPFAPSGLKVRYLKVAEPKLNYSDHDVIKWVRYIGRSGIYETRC
In words: pull-down.

A further experiment deals with T6, GST-μ2C E211A (rat, UniProt P84092 170-435, Glu211 to alanine).
T6 sequence (looked up): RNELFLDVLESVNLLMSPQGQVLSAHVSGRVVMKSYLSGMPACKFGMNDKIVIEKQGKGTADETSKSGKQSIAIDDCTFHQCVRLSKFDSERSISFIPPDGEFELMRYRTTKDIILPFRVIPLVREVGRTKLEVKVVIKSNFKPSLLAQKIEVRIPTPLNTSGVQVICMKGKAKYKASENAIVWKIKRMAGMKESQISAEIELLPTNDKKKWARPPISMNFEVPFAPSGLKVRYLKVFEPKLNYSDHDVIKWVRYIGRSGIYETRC
In words: pull-down.

In a further experiment the target is T7, GST-μ2C K405A (rat, UniProt P84092 170-435, Lys405 to alanine).
T7 sequence (looked up): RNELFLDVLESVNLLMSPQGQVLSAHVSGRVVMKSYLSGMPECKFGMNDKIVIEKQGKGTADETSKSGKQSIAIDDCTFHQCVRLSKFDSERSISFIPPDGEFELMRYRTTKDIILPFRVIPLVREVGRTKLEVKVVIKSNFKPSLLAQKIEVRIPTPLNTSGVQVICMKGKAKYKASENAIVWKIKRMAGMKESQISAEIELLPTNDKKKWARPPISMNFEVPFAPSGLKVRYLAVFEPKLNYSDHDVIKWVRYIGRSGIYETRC
The experiment in a line: pull-down.

Another experiment deals with T8, GST-μ2C K213A (rat, UniProt P84092 170-435, Lys213 to alanine).
T8 sequence (looked up): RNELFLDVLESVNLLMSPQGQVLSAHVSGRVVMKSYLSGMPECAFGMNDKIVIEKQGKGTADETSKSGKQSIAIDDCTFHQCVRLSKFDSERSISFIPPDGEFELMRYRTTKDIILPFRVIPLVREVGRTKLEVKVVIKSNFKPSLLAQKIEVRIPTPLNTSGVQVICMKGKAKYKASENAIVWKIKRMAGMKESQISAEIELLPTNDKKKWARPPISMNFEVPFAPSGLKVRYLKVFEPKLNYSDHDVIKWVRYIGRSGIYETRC
The experiment in a line: pull-down.

B1: μ2 (construct of the experiments not shown is not stated) (natural protein, rat, UniProt P84092 1-435, looked up)
chain: MIGGLFIYNHKGEVLISRVYRDDIGRNAVDAFRVNVIHARQQVRSPVTNIARTSFFHVKRSNIWLAAVTKQNVNAAMVFEFLYKMCDVMAAYFGKISEENIKNNFVLIYELLDEILDFGYPQNSETGALKTFITQQGIKSQHQTKEEQSQITSQVTGQIGWRREGIKYRRNELFLDVLESVNLLMSPQGQVLSAHVSGRVVMKSYLSGMPECKFGMNDKIVIEKQGKGTADETSKSGKQSIAIDDCTFHQCVRLSKFDSERSISFIPPDGEFELMRYRTTKDIILPFRVIPLVREVGRTKLEVKVVIKSNFKPSLLAQKIEVRIPTPLNTSGVQVICMKGKAKYKASENAIVWKIKRMAGMKESQISAEIELLPTNDKKKWARPPISMNFEVPFAPSGLKVRYLKVFEPKLNYSDHDVIKWVRYIGRSGIYETRC
For the molecule B1, the “fold decrease of μ2 affinity against wild-type Dvl2” value in experiment [1] and in experiment [2] was ~2 fold in each case.

B2: GST-Dvl2 417–588, wild type (domain or fragment, murine, UniProt Q60838 417-588, looked up)
chain: LSVHMDMASVTKAMAAPESGLEVRDRMWLKITIPNAFLGSDVVDWLYHHVEGFPERREARKYASGLLKAGLIRHTVNKITFSEQCYYVFGDLSGGCESYLVNLSLNDNDGSSGASDQDTLAPLPGATPWPLLPTFSYQYPAPHPYSPQPPPYHELSSYTYGGGSASSQHSEG
Take B2: the binding result in experiment [3] is “binds”.

B3: GST-Dvl2 417–588 R489A (domain or fragment, murine, UniProt Q60838 417-588, looked up)
chain: LSVHMDMASVTKAMAAPESGLEVRDRMWLKITIPNAFLGSDVVDWLYHHVEGFPERREARKYASGLLKAGLIAHTVNKITFSEQCYYVFGDLSGGCESYLVNLSLNDNDGSSGASDQDTLAPLPGATPWPLLPTFSYQYPAPHPYSPQPPPYHELSSYTYGGGSASSQHSEG
On to B3, for which the binding result in experiment [3] is on record as “binds”.

B4: GST-Dvl2 417–588 D441K (domain or fragment, murine, UniProt Q60838 417-588, looked up)
chain: LSVHMDMASVTKAMAAPESGLEVRKRMWLKITIPNAFLGSDVVDWLYHHVEGFPERREARKYASGLLKAGLIRHTVNKITFSEQCYYVFGDLSGGCESYLVNLSLNDNDGSSGASDQDTLAPLPGATPWPLLPTFSYQYPAPHPYSPQPPPYHELSSYTYGGGSASSQHSEG
Regarding B4, the binding result in experiment [3] was “binds”.

B5: GST-Dvl2 417–588 N451A (domain or fragment, murine, UniProt Q60838 417-588, looked up)
chain: LSVHMDMASVTKAMAAPESGLEVRDRMWLKITIPAAFLGSDVVDWLYHHVEGFPERREARKYASGLLKAGLIRHTVNKITFSEQCYYVFGDLSGGCESYLVNLSLNDNDGSSGASDQDTLAPLPGATPWPLLPTFSYQYPAPHPYSPQPPPYHELSSYTYGGGSASSQHSEG
In the case of B5, in experiment [3], the binding result is “binds”.

B6: His-tagged Dvl2 407–588 (domain or fragment, murine, UniProt Q60838 407-588, looked up)
chain: SLPDGCEGRGLSVHMDMASVTKAMAAPESGLEVRDRMWLKITIPNAFLGSDVVDWLYHHVEGFPERREARKYASGLLKAGLIRHTVNKITFSEQCYYVFGDLSGGCESYLVNLSLNDNDGSSGASDQDTLAPLPGATPWPLLPTFSYQYPAPHPYSPQPPPYHELSSYTYGGGSASSQHSEG
As for B6, the binding result (in experiment [4]; in the experiment with GST-μ2C F407A; with GST-μ2C E211A; with GST-μ2C K405A; with GST-μ2C K213A) was “binds” in each case.
